Test results published in PMC8230665, “Specificity of Human Sulfiredoxin for Reductant and Peroxiredoxin Oligomeric State” (Antioxidants, 2021).
Positions count from the first letter of the chain named. In names and notes the source's numbering stands. Blank lines part the entries; values can stand above or below the binder they belong to.

Legend:
[1] = target: the molecule itself; test: SEC-MALS; 2 mg/mL (86-93 µM) Prx in 50 mM HEPES pH 7.5, 100 mM NaCl; TSK Gel 4000 SW; reduced samples with 10 mM DTT, oxidized samples with 1.2 equivalents of H2O2
[2] = target: T1, hyperoxidized wild-type human peroxiredoxin 1, decameric (Prx1-SO2H) (human, UniProt Q06830 1-199, cysteine sulfinic acid at the peroxidatic cysteine (CP-SO2H; CP is Cys52)); test: fluorescence polarisation; Oregon Green 514-labelled Srx variants, decameric Prx1-SO2H added; MgCl2 omitted to prevent turnover; curves fit to a single site, saturable model; conditions: both partners purified
T1 construct: peroxiredoxin 1 (Prx1), human; also called hyperoxidized Prx1; copies: 10
T1 sequence (looked up): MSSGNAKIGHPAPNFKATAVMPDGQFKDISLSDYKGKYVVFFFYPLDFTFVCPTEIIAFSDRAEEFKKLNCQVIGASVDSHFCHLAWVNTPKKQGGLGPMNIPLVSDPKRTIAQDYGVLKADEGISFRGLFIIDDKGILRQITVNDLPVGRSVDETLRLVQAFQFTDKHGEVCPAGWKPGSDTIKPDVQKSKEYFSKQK

[3] = target: the molecule itself; test: crystal structure; disulfide-bonded Srx-Prx1 complex (Cys99 of Srx to Cys52 of Prx1); hanging drop, 100 mM citric acid pH 4.5, 26% PEG 400, 100 mM CsCl; 3.0 Å, space group C2

B1: human peroxiredoxin 3 Ser139Glu/Ala142Glu, engineered dimer (enzyme, UniProt P30048 62-256, looked up)
chain: APAVTQHAPYFKGTAVVNGEFKDLSLDDFKGKYLVLFFYPLDFTFVCPTEIVAFSDKANEFHDVNCEVVAVSVDSHFEHLEWINTPRKNGGLGHMNIALLSDLTKQISRDYGVLLEGSGLALRGLFIIDPNGVIKHLSVNDLPVGRSVEETLRLVKAFQYVETHGEVCPANWTPDSPTIKPSPAASKEYFQKVNQ
notes: peroxiredoxin 3 (Prx3), mitochondrial, human; Vector pET15b; His tag removed with thrombin; In the repair assay the protein was about 20% hyperoxidized; also called Prx3-S139E/A142E; Prx3-EE; source: E. coli BL21Gold (DE3), purified (HisPur Cobalt, Q-Sepharose, Superdex 200); not shown: His tag, N-terminal, cleaved
- stoichiometry N [1]: 2

B2: human peroxiredoxin 3, wild type (enzyme, UniProt P30048 62-256, looked up)
chain: B1 chain with E78S, E81A
notes: peroxiredoxin 3 (Prx3), mitochondrial, human; In the repair assay the protein was hyperoxidized (CP-SO2H); also called Prx3; WT Prx3; copies: 12
- stoichiometry N [1]: 12

- Kd [2]: 7 ± 1.5 µM
B3: Oregon Green 514-labelled human sulfiredoxin (Srx), wild type (enzyme)
chain: not shown
modifications: Oregon Green 514 label (position not given)
notes: sulfiredoxin (Srx), human; also called WT Srx; Oregon Green labeled Srx

B4: human peroxiredoxin 2, wild type (enzyme, UniProt P32119 1-198, looked up)
chain: MASGNARIGKPAPDFKATAVVDGAFKEVKLSDYKGKYVVLFFYPLDFTFVCPTEIIAFSNRAEDFRKLGCEVLGVSVDSQFTHLAWINTPRKEGGLGPLNIPLLADVTRRLSEDYGVLKTDEGIAYRGLFIIDGKGVLRQITVNDLPVGRSVDEALRLVQAFQYTDEHGEVCPAGWKPGSDTIKPNVDDSKEYFSKHN
notes: peroxiredoxin 2 (Prx2), human; Stored in the disulfide-bonded form; run on SEC-MALS reduced (10 mM DTT) or oxidized (1.2 equivalents of H2O2); In the repair assay the protein was hyperoxidized (CP-SO2H); also called Prx2; WT Prx2; copies: 10
- stoichiometry N [1]: 10

B5: human peroxiredoxin 2 Thr82Glu, engineered dimer (enzyme, UniProt P32119 1-198, looked up)
chain: B4 chain with T82E
notes: peroxiredoxin 2 (Prx2), human; Vector pET19pp; His tag removed with HRV-3C protease; Section 2.6 prints the mutation as T83E; In the repair assay the protein was about 80% hyperoxidized; also called Prx2-T82E; Prx2-E; source: E. coli BL21Gold (DE3), purified (HisPur Cobalt, Q-Sepharose, Superdex 200); not shown: His tag, N-terminal, cleaved
- stoichiometry N [1]: 2

B6: human peroxiredoxin 1 variant C71S, C83V, C173S (decamer) (enzyme)
chain: T1 sequence (looked up) with C71S, C83V, C173S
modifications: Cys52 disulfide-bonded to Cys99 of Srx (made through a Cys52-S-TNB mixed disulfide)
notes: peroxiredoxin 1 (Prx1), human; Only the peroxidatic Cys52 is left; C83V was put in to stabilise the decamer; also called Prx1 variant; Prx1 C83V mutant; source: purified; treated with DTNB, then titrated with Srx; copies: 10
- stoichiometry N [3]: 10

- Kd [2]: 12.5 ± 1.2 µM
B7: Oregon Green 514-labelled human sulfiredoxin Tyr128Ala (enzyme)
chain: not shown
modifications: Oregon Green 514 label (position not given)
notes: sulfiredoxin (Srx), human; The unlabelled variant was used in the HPLC activity assay; also called Srx Y128A; source: site-directed mutant (QuikChange), purified
